Measurements taken from the DeepSol protein solubility set.

Assay: soluble on expression in E. coli; label from the status in PepcDB or PDB records

**Q.** Which “soluble on expression in E. coli” value does the source give for “MNIFDHYRQRYEAAKDEEFTLQEFLTTCRQDRSAYANAAERLLMAIGEPVMVDTAQEPRLSRLFSNRVIARYPAFEEFYGMEDAIEQIVSYLKHAAQGLEEKKQILYLLGPVGGGKSSLAERLKSLMQLVPIYVLSANGERSPVNDHPFCLFNPQEDAQILEKEYGIPRRYLGTIMSPWAAKRLHEFGGDITKFRVVKVWPSILQQIAIAKTEPGDENNQDISALVGKVDIRKLEHYAQNDPDAYGYSGALCRANQGIMEFVEMFKAPIKVLHPLLTATQEGNYNGTEGISALPFNGIILAHSNESEWVTFRNNKNNEAFLDRVYIVKVPYCLRISEEIKIYEKLLNHSELTHAPCAPGTLETLSRFSILSRLKEPENSSIYSKMRVYDGESLKDTDPKAKSYQEYRDYAGVDEGMNGLSTRFAFKILSRVFNFDHVEVAANPVHLFYVLEQQIEREQFPQEQAERYLEFLKGYLIPKYAEFIGKEIQTAYLESYSEYGQNIFDRYVTYADFWIQDQEYRDPDTGQLFDRESLNAELEKIEKPAGISNPKDFRNEIVNFVLRARANNSGRNPNWTSYEKLRTVIEKKMFSNTEELLPVISFNAKTSTDEQKKHDDFVDRMMEKGYTRKQVRLLCEWYLRVRKSS” here?
**A.** soluble

**Q.** With “GPGSMPGGGLEVIGTPALPHPSSASDADDAAAGCSFRLSQSGGDPRYVSSRVAGRMQDARHGAESRLVDGTATFLDFLAETSVERPLRVRLRQRARQSFVFFNLETAIDCLNLSWEAYAVQESRGDDFISTGIQVNAAEVPRAALGFVERVAMALLGLCFNPSPHVCHALDDSEEDAAAAISFTSGGDRTPLLDERRASRSRSPVRAPLGAEVASSATRATQADLAAAALFPHCGSSSTRSGSCQPFFRQPAPAASATSPCFGGTSSPPGAAAAGASSFSSSPSNRIGSFPTSASAATANAGADAARLPHMNPEQYGYHRVAVLEARGVQVVVVRMDTSGSCPVHIGKVPRLVIAFRGTDNVANVMEDIRFRQRTWKEMKTPTLSGRASVHSGFLELWMSLKERVIDVVLRELRSQCTPLEGSNAEVSAAGTTGHAGEGASTVAGCSPSQAGHDMFHATVPFSDIWSLRRNGGGRGCADTRQGAFGSEQGGFEGFMRVYVTGHSLGGALASLCAYTLRRMLLLIQYPEPDLVVYTFGQPRIGNFVFKQYYNRAVPCTFRVVNESDAVSGFNFFGGHHVGVQVNIDRHGNYICKPMYIERMFRPTRGRGFALANHAISAYASSLNAMANVYTHGACPLRCRQPYMGEIVSVSSTNSE” as the sequence, how does the “soluble on expression in E. coli” value read?
**A.** not soluble

**Q.** With “MGSDKIHHHHHHMEMLFLLKNLYRDPLALSRFSQFRCLHISKGEIIQNLNETHEFQVCFVLKGSLCLFRDHIESMPLMAMQNEFFFISSLHQCKIKAMDEVQLVIHACNIVAPYLHSRTIEYLQDISIEEVKPVEVLPIYPLMRSYLDLLVDYMKNGTEIPDLHRAKEYELFSLFKICYKKNEIASIFRDALSNDLQFFVSVMTHYKACRTAKELAVLCGYNDTVFTQLFKKNFHGDTPYQWLQKQTSYEIEFKLKKSTLPIKQIMLDYHFKTFSHFTTYCKRNIGATPNEIRKKGEESRDTPSLETYSVSAND” as the sequence, how does the “soluble on expression in E. coli” value read?
**A.** not soluble

**Q.** Which “soluble on expression in E. coli” value does the source give for “GMDRTLTHQPQEYAVSVSVGEVKLKGNLVIPNGATGIVLFAHGSGSSRYSPRNRYVAEVLQQAGLATLLIDLLTQEEEEIDLRTRHLRFDIGLLASRLVGATDWLTHNPDTQHLKVGYFGASTGGGAALVAAAERPETVQAVVSRGGRPDLAPSALPHVKAPTLLIVGGYDLPVIAMNEDALEQLQTSKRLVIIPRASHLFEEPGALTAVAQLASEWFMHYLR” here?
**A.** soluble

**Q.** With “GKENDAGDIVEKFDPTEAQSVEVQDERPETTIGRGKPTDEVVLLSEAHRPEEKMAAYEDEHGTYIMNSKDLRAVQHVERLTKMGVHSLKIEGRTKSFYYCARTAQVYRKAIDDAVAGKPFDESLMGTLESLAHRGYTEGFLRRHTHDTYQNYDYGYSVSDAQQFVGEFTGKRRGDMAEVEVKNKFVVGDSLELMTPKGNVVFTLEAMENRKSESIEDAKGNGHFVFIPVPEDMDLEYGLLMRNLNAGQDTRNPTGK” as the sequence, how does the “soluble on expression in E. coli” value read?
**A.** not soluble

**Q.** For “SLNRESERDVIKVGIIGDFTGICSELERGKVAAYKLAADEINRMGGINEKKVELLFRDDRSLSELTREAVKELTEEERVDVLMGSTLSPSREIMQHYADQTKTLYLDTQQTEGGVSSHYTFCLSAMPEQQMTQMLAYLLQKYGRKCYVVAADYNYGILSAEWVKYLVHQLGGEIVGVEYLDDRITDFNPLIDRILQLEADILFSICVFPNHDAFYLQWHQRGLNHIPNASTMVAAEAYQNVRFAPPVLENMYVMASFIEELNTPAAQRFVKKFRAAYDHREVPYMSMDTETVYTAMYVYKRAVELAGTTDTEEVITALESGAVYVDGPGGRVTVRGEDHHTSRSLSCFRINNQHRAEELFCTNPIHSDYIESMIEQTMGVKGGIKAMGANAPSTQYNMLLNKFRWHPSEG”, which “soluble on expression in E. coli” value is on record?
**A.** soluble

**Q.** For “MSRRSSSSDSAVYVNFLERERRADVEKAARLYETRRDRVEPSYVFPAPSGEKRVGPNSNTGQKGVVGSYPVSIDYLTVVFSYARLAEAGYFDEPRFLLYLLFGLSVDDVIVGSHTSVRWHFYNSSASIIDSNGDLVGKIGWDGNADSYCISLTGSACRYIHDWSKVKRSLASLDARITRCDVAYDDYDGILGTVRHHEALAREHLAPAGGCLLFSSGGTPPRTRFLDDHGGGSGCTLYVGQRGHKQLCIYEKGKQLGVAESPWVRYEVRLYAKHAVIPFDLLEEPMRYLRGSYDYLCQLFSSVVVSPVSRIRTVVKHVEATGEALVRWLRRQVGPALGVLRQALGCGFSDFIVDRVEREGLPSRFRRICRGGDLLAYLRETLIDCSVGVCV”, which “soluble on expression in E. coli” value is on record?
**A.** not soluble

**Q.** For “MSIAVGMIETLGFPAVVEAADSMVKAARVTLVGYEKIGSGRVTVIVRGDVSEVQASVTAGIENIRRVNGGEVLSNHIIARPHENLEYVLPIRYTEAVEQFREIVNPSIIRRAAALEHHHHHH”, which “soluble on expression in E. coli” value is on record?
**A.** soluble

**Q.** Which “soluble on expression in E. coli” value does the source give for “MGSDKIHHHHHHMIVLLREINRYCKEKATGKRIYAVPKLWIPGFFKKFDEKSGRCFVDPYELGAEITDWILNQSREWDYSQPLSFLKGEKTPDWIKRSVVYGSLPRTTAAYNHKGSGYYEENDVLGFREAGTFFKMMLLLPFVKSLGADAIYLLPVSRMSDLFKKGDAPSPYSVKNPMELDERYHDPLLEPFKVDEEFKAFVEACHILGIRVILDFIPRTAARDSDLIREHPDWFYWIKVEELADYTPPRAEELPFKVPDEDELEIIYNKENVKRHLKKFTLPPNLIDPQKWEKIKREEGNILELIVKEFGIITPPGFSDLINDPQPTWDDVTFLRLYLDHPEASKRFLDPNQPPYVLYDVIKASKFPGKEPNRELWEYLAGVIPHYQKKYGIDGARLDMGHALPKELLDLIIKNVKEYDPAFVMIAEELDMEKDKASKEAGYDVILGSSWYFAGRVEEIGKLPDIAEELVLPFLASVETPDTPRIATRKYASKMKKLAPFVTYFLPNSIPYVNTGQEIGEKQPMNLGLDTDPNLRKVLSPTDEFFGKLAFFDHYVLHWDSPDRGVLNFIKKLIKVRQQFLDFVLNGKFENLTTKDLVMYSYEKNGQKIVIAANVGKEPKEITGGRVWNGKWSDEEKVVLKPLEFALVVQE” here?
**A.** not soluble

**Q.** Which “soluble on expression in E. coli” value does the source give for “RHMELSPDGNLKTTITIGDRLTYDITCNGRQILTPSPISMTLDNGTVWGENAKLSGTSRKSVDEMIPSPFYRASELRNHYNGLTLRFKKDWNVEFRAYNDGIAYRFVNQGKKPFRVVTEVSDYCFPSDMTASVPYVKSGKDGDYNSQFFNSFENTYTTDKLSKLNKQRLMFLPLVVDAGDGVKVCITESDLENYPGLYLSASEGANRLSSMHAPYPKRTVQGGHNQLQMLVKEHEDYIAKVDKPRNFPWRIAVVTTTDKDLAATNLSYLLGAPSRMSDLSWIKPGKVAWDWWNDWNLDGVDFVTGVNNPTYKAYIDFASANGIEYVILDEGWAVNLQADLMQVVKEIDLKELVDYAASKNVGIILWAGYHAFERDMENVCRHYAEMGVKGFKVDFMDRDDQEMTAFNYRAAEMCAKYKLILDLHGTHKPAGLNRTYPNVLNFEGVNGLEQMKWSSPSVDQVKYDVMIPFIRQVSGPMDYTQGAMRNASKGNYYPCYSEPMSQGTRCRQLALYVVFESPFNMLCDTPSNYMREPESTAFIAEIPTVWDESIVLDGKMGEYIVTARRKGDVWYVGGITDWSARDIEVDCSFLGDKSYHATLFKDGVNAHRAGRDYKCESFPIKKDGKLKVHLAPGGGFALKIK” here?
**A.** soluble

**Q.** Which “soluble on expression in E. coli” value does the source give for “MSAQYDLYETPDIKQTGEKQPLHPRIVPKGTIGQDEFLDRVHKFTGISRSLLAGAMQSFQNELKDLLANGWIVELGEIGYFSVSLQGPPVMHKKDVRAQSIKLKNINYLPTKQFKREVGYDMRLERTESLTRPKGNGRSEAECLALITAHLEKYPCMTRTDYCHMTGHDKKRALKELNAFIEKEILMRYGAGKQVVYAKKMI” here?
**A.** not soluble

**Q.** Which “soluble on expression in E. coli” value does the source give for “MGSDKIHHHHHHMLTKTIIGLDVGRSAVKVVAFANGLYYRLTFPSLVSPAFPINDEGTAARAELETVEVLGKRYFTGDTARLQGGVNMSVGLSHDWTNGPEYLALVASTMKRLAALGVPGLDSPYIVLGTPASLFGRQKEALAQRTQAVVAAEMKVLPQPMGAYCNFFMDARGVPIKDRQKRPDGKNRSWAVVEVGHYTTDFLLMREGNYIERAAVSCEGVHFAAENLVRILAAKDIQATPLTAEEALRTGVIVDFGERRIEAQVAEAVDHVVQKIMTMADSVLSNDVRSLDGVLLAGGGAPILAAGLQKKWPHTVLLENPRMAVADGFCRYGVGQMLRRAMAAEKATA” here?
**A.** not soluble

**Q.** With “MIRMETYPHNFEEKVGFDEIRRLLIGHCHSPMGSDRVIQMHALARHNEVSRLLAETEEMQIILREEDLFPDLRLADVREALNRIRPAGTYLEERELQDVATALRTIEALIRFFHVGEEEEGKDTPYPHLQTLLSEVIVFPDLEKRISSLFDRFGKMKDNASPELMNIRRELSSIEKNISRTLQGILRLAQSEGWVDQGVQPSVRDGRLVIPVAPAHKRKVRGIVHDESGTGKTVFIEPAEIVEANNRIRELEAAERREIIRILIEVCDALRPHIHDLIDCYEWIGLFDFISAKARLCGEWNAIRPILSKKPEIRWEKAVHPLLLRSLRAHGRDVIPLDISLTAPDKRILVISGPNAGGKSVCLKTVGLLQYMLQSGLPIPMSPDSTAGIFGKLFIDIGDEQSIEDDLSTYSSHLRNMKHFARHTDKNTLLLIDEFGGGTEPQIGGAIAEALLHRFNEQEGFGVVTTHYQNLKAYAEETPGLVNGAMLYDRHEMRPLFRLSIGRPGSSFAIEIARKIGLPEEVIAEATDKVGTGYIDMDKYLQDIVRDKRYWETKRTNIRKEEKRLEGAAAEYESRLESIKKERKQILDEARQQASVMLSQSSAQIEKTIRDIKEAQAEREKTRRARQELNDFRETINKEEIEKEERINREIEKIKRRKKRKQEKAASRSAETPVQPKLQEVPQPPVIQVGDTVRIKGQTAIGSIIDMNDREATIALGMIKTTVPIDRLEPAKPVKERKSEPVSGASARMIIDRIHEKRLDFKQDIDLRGMRVNEAVQAVMYFIDDAIQLGIPRVRILHGTGTGALRTVIREYLATVNGVRHFADEHVQFGGAGITVVELG” as the sequence, how does the “soluble on expression in E. coli” value read?
**A.** not soluble

**Q.** For “MKFAVVVFPGSNCDVDMYHAIADELGEEVEYVWHDEDDLDRFDAILLPGGFSYGDYLRSGAIARFSKVMAAVKKAAEAGKPVLGVCNGFQILLEAGLLPGAMRRNQGLKFICRPVQLTVENHETIFTSAYEKGEVITIPIAHGEGNYYCDEQTLERLVENRQIVFRYHGENPNGSLADIAGIVNERGNVLGMMPHPERAVDALLGSADGLKLFRSIVNYWRETHVVTA”, which “soluble on expression in E. coli” value is on record?
**A.** not soluble

**Q.** Which “soluble on expression in E. coli” value does the source give for “MGHHHHHHGGHMSLLRFLEVVSEHIKNLRNHIDLETVGEMIKLIDSARSIFVIGAGRSGYIAKAFAMRLMHLGYTVYVVGETVTPRITDQDVLVGISGSGETTSVVNISKKAKDIGSKLVAVTGKRDSSLAKMADVVMVVKGKMKQERDEILSQLAPLGTMFELTAMIFLDALVAEIMMQKHLTEKDLEARHAVLEEGGS” here?
**A.** soluble
